Assay: soluble fraction after stress (log2 fold change); higher = more stays soluble; pooled small domains, quantitative proteomics
Conditions: stress: pH 4
Summary of the method: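 Values are on a log2 scale, where higher means more of the domain stayed soluble after pH 4 stress. They are fold changes in the soluble amount of each domain from pooled custom libraries, measured by high-throughput quantitative proteomics. The fold change is taken to reflect aggregation propensity.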

Point of comparison: “HMQRDTIAISAIPTAIKTYLSSTYPTDTLVHAFVNKDQSIVVISKNIDFYATSFSTANAFIKRIQLPA”, “soluble fraction (log2)” value 0.156. Against it:
- HMAMDYYAIGQRIRKFRKAHDWSQEELAEKVEISTTHMSHIETGSTKLSLPVLVSLANVLDVRTDDLLF — lower, -0.272
- HMAELAKAKLDAAVQVALLKAGALDTDYLAYKLQGMDGVALDDKGSLTGWDTTLETLKSQYPTQFA — lower, -0.388
- HMSSDDEAFKRELVGLIPHLRAFARTLTGDPTAADDLAQDAMMKAWDARASYQMGTNMKAWTFMILRNQFY — lower, -1.65
- HMGDWEKALAQFAAHRLANGSTAFLDEMYPIFERILLQAALNKTGGRKIEAAELLGWGRNTLTRKLKELGF — lower, -1.01
- HMNYKNAIGQVGSVYVPIPPNREGLGQIEVKVQSRVSTVRAVSDHSERLENRVAVRVIELVDDRTLLVEKL — lower, -1.13
- HMYYNQGILKSGASVYGEPGITSSHRLEIPSGSFVDIVQEKDEWVYYEKNHVNHGWVLRENIYIPSL — within 0.2 log units, 0.23
- HMNNPISMQKLRQVIRLYGQGKGTKSINSMLGVSRNTIKKYLQVYHSSGINYESFLAMSDKELSAVFLV — within 0.2 log units, 0.226
- HMTANTQVENIRLELQRYMDEHGISQVTVARGIGKTHPVISQFLNNKYPGDVEEVARAIESWLTKQHEKAA — higher, 0.381
- HMNPETLTNGSVVKMSKANLSDELIIDMINNSPARFDLSSGALRSLEGEGVSKAVIESMKRATSG — within 0.2 log units, 0.0233
- HMAVTFPYTAYATDAVRLRERPSSSADVLAVIRKGDAVLVTGTDGNYAIVDYEGKRGYVVSSFIAT — lower, -0.159
- HMGSIRDIIVQYLSKFDDPQPAAKIVEYVQQYRDTTESSIRSSMGSGDQFVQFSGGLYGLKDKTYAAWYSI — lower, -0.383
- HMFIEPPSLEELERRLRGRGTETDDVVDMRMRTALVELSQKMEYDYRLVNDDLDEATRQLVAYVNEIAEQ — lower, -0.679
- HMLSVLKNVDVNSLSDDKIKTYWQQIQKSGYTLDEVEVLAEAQGISPLKIAAFKRRVQSLQQSLQT — within 0.2 log units, -0.018
- HMARHIHFEVHVQQAGRWSIHAQFGAGQREKAIEEAKKIEKTPGFDSVKVVKETYDSDLGNHQDTTIYRGP — within 0.2 log units, 0.0508
- HMNNENELSSIISKVLEENPAEKERFLNGEKKLAGFFMGKIMKATKGTADPKKAAQLLNEIL — within 0.2 log units, 0.271
- HMEWGEADFVRLDEALATLRTLSPRQAEVVDLRFFSELSLEETAATLGLSLATVKRDWSVARLYLQRALS — lower, -0.815
- HMQTKNYVYFNNTENWSTVNVYVWSSKDSTYMSWPGKAMESIGNNTYRFELPNGAEYAIFNNGSAQTVD — lower, -0.185
- HMLINIKTNSAVNVRSGPGMGFEVVNTYPSGYILQAKEMQKDGGDNVWYKVKDGWLSANYTIDI — higher, 0.394
- HMIHSEDMDDHILGHKLVDQYLNKHIEFDNIKKAWNYHTVAIKKFGRYPHRNKILKRESTIEEIDFLKQP — lower, -0.298
- HMKEEVSVPDIKGMTYEEAEAKLAKYDLEIEKGETVKASEQYEEGQISSQEPEAGSKVKEGSTIVVDVVE — lower, -0.174
- HMENKIIKNAAHATLKVKKDAGIEITTELIREAVILFHRIYSPNDNPNINWERIINELESHYT — lower, -0.993
- HMKLKHANGNHPLTQQEKQNMIEEAAKHYGDYMTALGFDWKQDPNSSDTPMRVAKAFVNDLAEGVY — lower, -0.348
- HMDYGSISFINWSIEVLSVIKTRLDRGDKIIDEVSGEKYTASSFEKFVRKNFSSYIFSQVYAEDHKK — within 0.2 log units, -0.016
- HMDRVTYPVSFNGKVRFQLELDAGMNAKEVETAALGHEKTAAQIEGKTIRKVIVVPGRIINIVV — lower, -0.404
- HMGMESFWNRVANLLNTSTVVELAQILDVKRSTLSSWIHSDRRPPMEVLLKITRLTGVDIHRLE — lower, -0.576
- HMKPVPPLNGTSLRDLALGYAGRYATTAARLKHYLQRKLRERGWGGEDEPDLDGLVARLVELGYVNDEVF — lower, -0.723
- HMDYHTIQTGDKGDEVLRLQQALAEYGYYEGDLDGRFGQQTRRAVERFQYSHGLTADGIAGRNTLSVLYD — lower, -0.051
- HMKGTSIELIVPQDIAGLRLDQVLAKLLPQWSRSRLQSWINEKHITVNGQTTTAKQKLWGNETIQIIPPI — lower, -0.0718
- HMESADEESNALMYDGLLAMRGKRYEVALEFFDALVKHDPDFAEGWNKRATVLYLLGRYERSIADIKQVLA — within 0.2 log units, -0.0176
- HMDPSDQLYTVPPSAEGLRLDLFLVQHVPHMTRALATQLTGAGQVRVNGRRAKKGDRLPSGAQVRLEQAP — lower, -0.138
- HMNMTDVLVVNQTVRGGTQITESMLSVKKVDKSSLPDNYLKASLKDEVVGKYFDLGLTSGGVLTKDNISVS — within 0.2 log units, 0.104
- HMEKSLKELAQGVGQKVLTSGRPYHFDPMSAMERRVVHMTLMEMDGLRTESEGEGRFRHVVVFPA — lower, -0.208
- HMPQNVSVPDVTNMTQAEAESKLKEKNLAVGNIIPELSTTVEKDKVTRTNPESGSNVRKNSKVDIYVSQG — within 0.2 log units, 0.327
- HMHLIPRESTYEIDGRRFVVDSVNLDFGKVSLQDITFRNATGFPIFRSESIEFMRRLVEISEAQRIAEL — lower, -0.114
- HMAAVAPPVLERIASDLATRFAGTLSPETVDRYVRESYHLLAERAGITRYLPSLTARFAGDRLDA — lower, -0.208
- HMKKGATVSGVIVEKTKKSLIIDLGAKTEGVVADKEFEFAIDFVKELKKGDEVKAIVISTDNDKGQVVLSL — higher, ≥ 0.43
- HMSESIFTLYGDEKFEKIRYYLKERGFITLDALARFDFDELLFVPGVSELLISEAKQLFSRYDTSSLAAKE — lower, -0.921
- HMESENANVNRAMLTGIASMHAGQLETALNKFNEVIQLAPDFAEGWNKRATIFYLMKKFDRSVNDIAQTLK — lower, -0.741
- HMNPNEVQIPDLVNKTEDEAEQILKDLKLKLVVKSEEYNENIEKGKIISQDPPYQENYTIKEHSEISIVIS — lower, -0.415
- HMSPTDKATVNVYALNVRTGPGTNYKVLGSVIKGTELQVLGSSGKWLKVKYGNREAYVAGWLVK — within 0.2 log units, 0.118
- HMQPETIEDATNLYLEAARATLQLIEQNNVIARDVKRLLEHLDNDMARIETLLAEMLSRRDHWLRHIH — within 0.2 log units, 0.185
- HMTHFRTDERRREILSTIEADGRVSVSEIASRFDVSPVTIRSDLNYLAIQGKLKRVRGGAVLLDH — within 0.2 log units, 0.275
- HMGAGEQMLPKVMFAEGDRVVHKVFGEGTVVTVDRPAQTYDIQFDKLRGTRRIMFRAELEGI — lower, -0.922
